Data on 22 molecules can be found in patent US11634477 (dated 2023).

As a reminder, the EC50 is the concentration at which the effect is half-maximal. The low end stands for a more potent agent, the high end for a less potent agent.

Where a chain is given by its changes, count along the chain named.

The labels stand for the following.
B1: C101 (antibody, V domains shown)
VH: QVQLVESGGGLIQPGGSLRLSCAASGFIVSSNYMSWVRQAPGKGLEWVSVIYSGGSTFYTDSVKGRFTISRDNSKNTLYLQMNSLRAEDTAVYYCVRDYGDFYFDYWGQGTLVTVSS
VL: EIVLTQSPGTLSLSPGERATLSCRASQSVSSSYLAWYQQKPGQAPRLLIYGASSRATGIPDRFSGGGSETDFTLTISRLEPEDCAVYYCQQYGSSPRTFGQGTKVEIK
B2: C102 (antibody, V domains shown)
VH: B1 VH with T60A, V96A, F102Y
VL: not shown
B3: C163 (antibody, V domains shown)
VH: QVQLQQWGAGLLKPSETLSLTCAVSGGSLSGFYWTWIRQPPGKGLEWIGETNHFGSTDYKPSLKSRVTISVDMSRNQFSLKVTSVTAADTAVYYCARKPLLHSDLSPGAFDIWGQGTMVTVSS
VL: EIVLTQSPGTLSLSPGERATLSCRASQTVSANYLAWYQQKAGQAPRLLIYGASKRATGIPDRFSGSGSGTDFTLSISRLEPEDFAVYYCQQYVTTPRTFGGGTKVEI
B4: C161 (antibody, V domains shown)
VH: B3 VH with K81I, V82M, P99T, H102F, L105F
VL: B3 VL with V29L, S30T, A41P, V93G
B5: C162 (antibody, V domains shown)
VH: B3 VH with P61A, D72G, V85L, H102Y, L105F, I112V
VL: B3 VL with V29L, S30T, A41P, T57A, S77T, V93H
B6: C037 (antibody, V domains shown)
VH: QLVQSGPEVKKPGTSVKVSCKASGFTFTSSAMQWVRQARGQRLEWIGWIVVGSGNTNYAQKFQERVTITRDMSTSTAYMELSSLRSEDTAVYYCAAPYCSGGSCNDAFDIWGQGTMVTVSS
VL: not shown
B7: C160 (antibody, V domains shown)
VH: QVQLVQSGAEVKKPGASVKVSCKASGYTFTSYGISWVRQAPGQGLEWMGWISAYNGNTNYAQKLQGRVTMTTDTSTSTAYMELRSLRSDDTAVYYCARVPASYGDDDYYYYYGMDVWGQGTTVTVSS
VL: SYELTQPPSVSVSPGQTARITCSGDALPKQYAYWYQQKPGQAPVLVIYKDSERPSGIPERFSGSSSGTTVTLTISGVQAEDEADYYCQSADSSGTLWVFGGGTKLTVL
B8: C010 (antibody, V domains shown)
VH: EVQLVESGGGVVQPGRSLRLSCAASGFTFSSYAMHWVRQAPAKGLEWVAVILYDGSGKYYADSVKGRFTISRDNSKNTLYLQMNSLRAEDTAVYYCARDGIVDTALVTWFDYWGQGTLVTVSS
VL: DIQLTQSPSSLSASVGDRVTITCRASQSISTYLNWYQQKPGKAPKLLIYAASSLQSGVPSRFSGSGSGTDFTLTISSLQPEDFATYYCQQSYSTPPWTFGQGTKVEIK
B9: C119 (antibody, V domains shown)
VH: QVQLVQSGAEVKKPGASVKVSCKASGYTFTSYYMHWVRQAPGQGLEWMGIINPSGGSTSYAQKLQGRVTMTRDTSTSTVYMELSSLRSEDTAVYYCARANHETTMDTYYYYYYMDVWGKGTTVTVSS
VL: QSALTQPASVSGSPGQSITISCTGTSSDVGGYKYVSWYQRHPGKAPKLMIYDVSNRPSGVSNRFSGSKSGNTASLTISGLQAEDEADYYCSSYTSSSTSVVFGGGTQLTVL
B10: C144 (antibody, V domains shown)
VH: EVQLVESGGGLIQPGGSLRLSCAASGFTVSNNYMSWVRQAPGKGLEWVSVIYSGGSTYYADSVKGRFTISRDKSKNTLYLQMNRLRAEDTAVYYCAREGEVEGYNDFWSGYSRDRYYFDYWGQGTLVTVSS
VL: QSALTQPASVSGSPGQSITISCTGTSSDVGGYNYVSWYQQHPGKAPKLMIYDVSNRPSGVSNRFSGSKSGNTASLTISGLQAEDEADYYCSSYTSSSTRVFGTGTKVTVL
B11: C112 (antibody, V domains shown)
VH: QVQLVESGGGVVQPGRSLRLSCAASGFTFSSHAMHWVRQAPGKGLEWVAVISYDGSNKYYADSVKGRFTISRDNSKNTLYLQMNSLRAEDTAVYYCAREDYYDSSGSFDYWGQGTLVTVSS
VL: B10 VL with R99W, T103G, V107L
B12: C149 (antibody, V domains shown)
VH: QVQLVESGGGVVQPGRSLRLSCAASGFTFSTYGMHWVRQAPGKGLEWVAVISYDGSNKYFADSVKGRFTISRDNSKNTLYLQMNSLRPEDTAVYYCAKVGMEYSSGWYGEEIDFWGQGTLVTVSS
VL: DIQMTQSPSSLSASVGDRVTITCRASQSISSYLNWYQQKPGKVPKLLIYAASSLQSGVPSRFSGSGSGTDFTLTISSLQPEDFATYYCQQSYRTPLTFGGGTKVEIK
B13: C129 (antibody, V domains shown)
VH: QVQLVESGGGVVQPGRSLRLSCAASGFTFSSYGMNWVRQAPGKGLEWVAVISYDGSNTYYTDSVKGRFTISRDNSKNTLYLQMNSLRVDDTATYYCAKGPRFGWSYRGGSGFDIWGQGTMVTVSS
VL: DIQMTQSPSSLSASVGDRVTITCQASQDISNYLNWYQQKPGKAPKLLIYDASNLETGVPSRFSGSESGTDFTFTISSLQPEDIATYYCQQYDNLPITFGQGTRLEIK
B14: C038 (antibody, V domains shown)
VH: VQLVESGGGVVQPGRSLRLSCAASGFTFNRIAMYWVRQAPGKGLEWVAVISFDGSYEYYAESVKGRFAISRDNSKNTLYLQMNSLRAEDTAVYYCAKSPMGYCTNGVCYPDSWGQGTLVTVSS
VL: NFMLTQPHSVSESPGKTVTISCTGSSGSIASNYVQWYQQRPGSAPTTVIYEDTQRPSGVPDRFSGSIDSSSNSASLTISGLKTEDEADYYCQSYDINSRWVFGGGTKLTVL
B15: C032 (antibody, V domains shown)
VH: EVQLVQSGAEVKKPGESLKISCKGSGYSFTSYWIGWVRQMPGKGLEWMGIIYPGDSDTRYSPSFQGQVTISADKSISTAYLQWSSLKASDTAMYYCARGVAVDWYFDLWGRGTLVTVSS
VL: QSVLTQPPSVSGAPGQRVTISCTGSSSNIGAGYDVHWYQQLPGTAPKLLIYGNSNRPSGVPDRFSGSKSGTSASLAITGLQAEDEADYYCQSYDSSLSALYVFGTGTKVTVL
B16: C106 (antibody, V domains shown)
VH: QLQLQESGPGLVKPSETLSLTCTVSGASVSSGSYYWSWIRQPPGKGLEWIGYIYYSGSTNYNPSLKSRVTISVDTSKNQFSLKLSSVTAADTAVYYCARERPGGTYSNTWYTPTDTNWFDTWGQGTLVTVSS
VL: SYELTQPPSVSVAPGKTARITCGGNNIGSKSVHWYQQKPGQAPVLVIYFDSDRPSGIPERFSGSNSGNTATLTISRVEAGDEADYYCQVWDSSRDHVVFGGGTKLTVL
B17: C040 (antibody, V domains shown)
VH: not shown
VL: B16 VL with K16Q, I47V, F49D, R94S, H96Q, V97G
B18: C212 (antibody, V domains shown)
VH: QVQLVQSGAEVKKPGASVKVSCKASGYTVTGYYIHWVRQAPGQGLEWMGWISPNSGGTNYAQKFQGWVTMTRDMSITTAYMELSRLRSDDTAVYYCARERYFDLGGMDVWGQGTTVTVSS
VL: LTQPASVSGSPGQSITISCTGTSSDVGSYNLVSWYQQHPGKAPKLMIYEDSKRPSGVSNRFSGSKSGNTASLTISGLQAEDEADYYCCSYAGSSTRLFGGGTKLTVL
B19: C036 (antibody, V domains shown)
VH: QVQLQQWGAGLLKPSETLSRTCAVFGGSFTNYYWSWIRQSPGKGLEWIGEINDSGITNYNPSLKSRVTISVDTSKNQFSLSLRSVTAADTAVYYCARRRSFSRPSSIDYWGQGTLVTVSS
VL: not shown
B20: C152 (antibody, V domains shown)
VH: QVQLVQSGAEVKKPGASVKVSCKASGYTFTSYGISWVRQAPGQGLEWMGWISAYNGNTNYAQKLQGRVTMTTDTSTSTAYMELRSLRSDDTAVFYCARDRGGHDFWSGYGFYYYYGMDVWGQGTTVTVSS
VL: DIQMTQSPSSLSASVGDRVTITCRASQGISNYLAWYQQRPGKVPKLLIFAASTLQSGVPSRFSGSGSGTDFTLTISSLQPEDVATYYCQKYNSAPRTFGQGTKVEIK
B21: C146 (antibody, V domains shown)
VH: EVQLVESGGGLVKPGGSLRLSCAASGLTFTAYRMNWVRQAPGKGLEWLSSISNTNGDIYYADSVKGRFTISRDNAKNSLYLQMNSLRADDTAVYYCARDVASNYAYFDLWGQGTLVTVSS
VL: QSALTQPASVSGSPGQSITISCTGTSSDIGVYNYISWSQQHPGKAPKVMIYDVTNRPSGVSNRFSGSKSGNTASLTISGLQAEDEADYYCSSYRGSSTPYVFGTGTKVTVL
B22: C135 (antibody, V domains shown)
VH: QVQLVESGGGVVQPGRSLRLSCAASGFTFSSYAMHWVRQAPGKGLEWVAVIPFDGRNKYYADSVTGRFTISRDNSKNTLYLQMNSLRAEDTAVYYCASSSGYLFHSDYWGQGTLVTVSS
VL: DIQMTQSPSTLSASVGDRVTITCRASQSISNWLAWFQQKPGKAPKLLIYEASSLESGVPSRFSGSGSGTEFTLTISSLQPDDFATYYCQQYNSYPWTFGQGTKVEIK

The first assay addresses SARS-CoV-2 RBD (SARS-CoV-2, UniProt P0DTC2). In words: ELISA. On the technique in general: An ELISA detects its analyte on a solid surface through an enzyme-linked reagent.
As for B1, the EC50 is 1.51 ng/mL.
The same measure, in the same setting: under B2 stands 4.54 ng/mL.
As to B3, the EC50 was 1.77 ng/mL.
Regarding B4, the EC50 worked out at 1.63 ng/mL.
B5: the EC50 is 1.18 ng/mL.
Consider B6, for which the EC50 turned out to be 1.93 ng/mL.
For the molecule B7, the EC50 came to 2.54 ng/mL.
B8 displayed a concentration for a half-maximal effect (EC50) of 5.44 ng/mL.
The molecule B9 yielded an EC50 of 3.57 ng/mL.
For the molecule B10, the midpoint of the response, the EC50, lay at 3.24 ng/mL.
On the same count and under the same terms, under B11 stands 3.38 ng/mL; under B12, 1.79 ng/mL; under B13, 1.16 ng/mL.
On to B14, for which the response was half-maximal at 4.69 ng/mL (EC50).
For the molecule B15, the EC50 came out at 99.3 ng/mL.
As for B16, the EC50 came to 19 ng/mL.
B17 returned an EC50 of 11.1 ng/mL.
Same read-out and setting: with B18 the figure was greater than 1000 ng/mL; with B19, 64.1 ng/mL; with B20, 1.88 ng/mL.
The same measure, in the same setting: with B21 the figure was greater than 1000 ng/mL.

In a further assay the target is SARS-CoV RBD (SARS-CoV, UniProt P59594). In words: ELISA.
Consider B1, for which the 50% effective concentration (EC50) was greater than 1000 ng/mL.
As to B2, the EC50 is greater than 1000 ng/mL.
B8 displayed an EC50 greater than 1000 ng/mL.
As to B9, the EC50 is greater than 1000 ng/mL.
For the molecule B10, the EC50 is greater than 1000 ng/mL.
Molecule B11 gave an EC50 greater than 1000 ng/mL.
The same measure, in the same setting: under B22 stands greater than 1000 ng/mL; under B16, 107 ng/mL.
Still for that read-out and setting: under B18 stands greater than 1000 ng/mL.
The molecule B21 showed an EC50 greater than 1000 ng/mL.
